The record followed here is paper PMC7448930.

For this assay, the target named is HCoV-19 fusion core (HR1 and HR2 linked with a peptide linker) (HCoV-19). The assay is described as follows: crystal structure; HR1 and HR2 linked on one chain by a peptide linker; 1.5 Å; one HR1/HR2 complex in the asymmetric unit, trimer by symmetry operations.

For orientation: stoichiometry N means a count of units in the complex or per binding partner.

As for “HCoV-19 fusion core (HR1 and HR2 linked with a peptide linker) (domain or fragment)”, the stoichiometry N was 3.
